± gives the standard deviation.

This data set is described as follows: protein stability index of a GFP-peptide fusion (GPS, HEK-293T) (PSI 1-6); higher = more stable.
Where [1] appears, read: treatment: DMSO, c terminus: a fixed tail appended.
Where [2] appears, read: treatment: MLN4924 1 uM, 8 h, c terminus: a fixed tail appended.
[3] abbreviates: treatment: DMSO, c terminus: native.
The mark [4] stands for this setting: treatment: MLN4924 1 uM, 8 h, c terminus: native.
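Note: 24-mer peptide tiles fused after GFP, lentivirally expressed, FACS-sorted into six equal bins by GFP/DsRed ratio, decoded by Illumina sequencing, PSI is the read-weighted mean bin number.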

With FKSLDKKNDGRIDAQEIMQSLRDL [SLC25A25], the protein stability index worked out at 4 ± 0.2 under setting [1] and 3.92 ± 0.34 under setting [2].

Sequence FLPSLRPPPLTSPSHGSLSHSKAP [NCF4] registered a protein stability index under setting [1] of 3.45 ± 0.13 and a protein stability index under setting [2] of 3.63 ± 0.14.

Turning to FNAGIQQAFQLPKLGALLSRCRKL [ZBED1], the protein stability index by setting is: under setting [1], 2.63 ± 0.31; under setting [2], 2.63 ± 0.29.

As to FNMLHDNSKPCISLNGPLSTSRHV [ADAMTS4], the protein stability index was found to be 3.21 ± 0.22 under setting [1] and 3.26 ± 0.25 under setting [2].

With FPNQKSEAAEPPKTPPSSCDSTNA [KMT5A], the protein stability index is, setting by setting: under setting [1], 5.52 ± 0.13; under setting [2], 5.53 ± 0.2.

On to FPYFRSDRDKRDFVSAGAAAGVAA [CLCN6], for which the protein stability index came out at 3.63 ± 0.45 under setting [1] and 3.82 ± 0.23 under setting [2].

With FQEAQIKRKARNEGRNRRRQQVLP [CDKL4], the protein stability index reads like this: under setting [1], 3.79 ± 0.54; under setting [2], 4.08 ± 0.14.

Consider FQPQPVQPQQGYIPPMAQPGLPPV [ZNF207], for which the protein stability index came out at 3.5 ± 0.31 under setting [1] and 3.74 ± 0.26 under setting [2].

In turn, FQSHEPEFDYLKSLEIEEKINKIR [PPP2R2B] registered a protein stability index under setting [1] of 3.26 ± 0.36 and a protein stability index under setting [2] of 3.56 ± 0.31.

FSLTHTHTHTPNHRGINCFFPEL [ANKRD44]: the protein stability index under setting [3] is 2.54 ± 0.56 and the protein stability index under setting [4] was 2.76 ± 0.57.

As to FSLVLVLDLSKPNDLWPTMENLLQ [DYNC2LI1], the protein stability index stood at 2.67 ± 0.51 under setting [1] and 2.72 ± 0.41 under setting [2].

Consider FSSQKLKCLSMFPHYICTLKQPHL [PNLIPRP1], for which the protein stability index reads like this: under setting [1], 2.66 ± 0.57; under setting [2], 2.17 ± 0.35.

As for FTCDEENVFAAVGRGLYVYSLQMK [WDR41], the protein stability index was determined as 2.57 ± 0.56 under setting [1] and 2.38 ± 0.093 under setting [2].

FTELRLLLDEEEALAKKFIDKNTQ [TRIM14]: the protein stability index came to 2.68 ± 0.53 under setting [1] and 3.44 ± 0.93 under setting [2].

Take FTRNEFNLESKSTIGVEFATRSIQ [RAB11A]: the protein stability index was 2.97 ± 0.3 under setting [1] and 3.2 ± 0.21 under setting [2].

Consider FTVNPKPRVEYIDRPRCCLRGKEC [BTBD1], for which the protein stability index by setting is: under setting [1], 2.92 ± 0.11; under setting [2], 3.23 ± 0.35.

As to FVLSCSYDGLDCQARQFRTFHHPT [SCNN1D], the protein stability index by setting is: under setting [1], 2.62 ± 0.74; under setting [2], 2.63 ± 0.58.

Turning to FVSFFNKWDAENAIQQMGGQWLGG [TIA1], the protein stability index reads like this: under setting [1], 2.69 ± 0.78; under setting [2], 2.1 ± 0.59.

In the case of FVTYVFFVFFVLLNMFLAIINDTY [PKD2L1], the protein stability index runs as follows: under setting [1], 2.3 ± 0.47; under setting [2], 2.26 ± 0.45.

As for FYHCSNDDEGDSYSDNPCSCSQSH [SPRY1], the protein stability index is, setting by setting: under setting [1], 4.28 ± 0.076; under setting [2], 4.31 ± 0.25.

FYKRRGASDLSSEEGWRLFKIDKE [SAT1]: the protein stability index is 3.32 ± 0.21 under setting [1] and 3.62 ± 0.49 under setting [2].

On to GAGHCSASPGPAAPTARMPGRLRG, for which the protein stability index amounted to 4.82 ± 0.34 under setting [1] and 4.78 ± 0.25 under setting [2].

As to GAQELLEFTIRDLQRLGELQSELA [INTS4], the protein stability index was found to be 2.54 ± 0.36 under setting [1] and 2.79 ± 0.29 under setting [2].

Sequence GAQGSGGGSTSAHYAVNSQFTMGG [CARM1] displayed a protein stability index under setting [1] of 3.92 ± 0.34 and a protein stability index under setting [2] of 4.23 ± 0.2.

For the sequence GAQIWCGEGVDKLSLPARNQAGYF [ALDH8A1], the protein stability index reads like this: under setting [1], 2.47 ± 0.27; under setting [2], 2.65 ± 0.37.

For GARQQQVTTYLHKDYNNLWIIKKH [POMT2], the protein stability index is, setting by setting: under setting [1], 2.49 ± 0.27; under setting [2], 2.58 ± 0.35.

GATTLGDMIYVSGGFDGSRRHTSM [KLHL12]: the protein stability index turned out to be 2.88 ± 0.38 under setting [1] and 3.02 ± 0.5 under setting [2].

Consider GCVSRCWEVQVSPTCPVCKDRASP [TRIM35], for which the protein stability index runs as follows: under setting [1], 4.04 ± 0.28; under setting [2], 4.13 ± 0.44.

Consider GDETAHRIDSQFLIGDTLLVAPVL [MYORG], for which the protein stability index runs as follows: under setting [1], 2.94 ± 0.3; under setting [2], 2.85 ± 0.34.

GDHRSPASAQKFSSRSTVPTPAKR [NET1]: the protein stability index reads like this: under setting [1], 4.75 ± 0.38; under setting [2], 5.05 ± 0.23.

Turning to GEKPFECNECGKAFRWGAHLVQHQ [ZNF232], the protein stability index reads like this: under setting [1], 2.58 ± 0.52; under setting [2], 2.62 ± 0.82.

Take GEKSENNSSNSDIVHVEKEEVPEG [BCL2L13]: the protein stability index reads like this: under setting [1], 5.8 ± 0.2; under setting [2], 5.3 ± 0.76.

For the sequence GFALNPDKKTCTKIDYCASSNHGC [MATN2], the protein stability index by setting is: under setting [1], 3.53 ± 0.31; under setting [2], 3.57 ± 0.64.

Turning to GFEESEPLTGFLTTVPDGPTQLRA [TNXB], the protein stability index reads like this: under setting [1], 4.44 ± 0.41; under setting [2], 4.52 ± 0.3.

With GFQPPSPSLRPRPASSISLPIGHL [DMRTC1], the protein stability index runs as follows: under setting [1], 3.43 ± 0.21; under setting [2], 3.44 ± 0.19.

Regarding GFRESDSAKPASLRLLQHTPSARR [C6orf223], the protein stability index is, setting by setting: under setting [1], 4.49 ± 0.38; under setting [2], 4.67 ± 0.3.

For GFRGSDDMELHRMSRMQSKEYPVV [TBX5], the protein stability index amounted to 3.93 ± 0.31 under setting [1] and 3.98 ± 0.31 under setting [2].

Regarding GGLAESELRPRRGRCGPQAARAAG [POMT2], the protein stability index reads like this: under setting [1], 3.71 ± 0.17; under setting [2], 3.75 ± 0.38.

Regarding GGLNRETNEKMLKAVFGKHGPISE [RBMY1A1], the protein stability index under setting [1] was 3.69 ± 0.28 and the protein stability index under setting [2] was 3.81 ± 0.19.

Turning to GGRDFSAPLTISRVHAGSKAALAA [PDLIM4], the protein stability index by setting is: under setting [1], 3.59 ± 0.24; under setting [2], 3.85 ± 0.27.

In turn, GGRGVSTCSTRFVSGGSAGGYGGG [KRT13] yielded a protein stability index under setting [1] of 3.77 ± 0.41 and a protein stability index under setting [2] of 3.97 ± 0.15.

As for GGVLIDRYGRRTAIILSSCLLGLG [SLC2A12], the protein stability index is, setting by setting: under setting [1], 2.86 ± 1; under setting [2], 2.74 ± 1.3.

As for GHEYAAKIINTKKLSARDHQKLER [CAMK2B], the protein stability index under setting [1] stood at 4.09 ± 0.24 and the protein stability index under setting [2] is 4.32 ± 0.19.

For the sequence GIDLAVYETLKNAWLQHYAVNSAD [SLC25A25], the protein stability index reads like this: under setting [1], 2.84 ± 0.44; under setting [2], 2.4 ± 0.33.

GILHYAHGDSQQTHLLKQGRSSMG [CRY1]: the protein stability index reads like this: under setting [1], 3.6 ± 0.23; under setting [2], 3.52 ± 0.3.

As for GKDQGINIRQKVKELVEFAQDDDR [CLINT1], the protein stability index by setting is: under setting [1], 5.15 ± 0.42; under setting [2], 4.91 ± 0.28.

As to GKIDFPRHLDFHVKDLIKKLLVVD [PRKX], the protein stability index reads like this: under setting [1], 2.44 ± 0.48; under setting [2], 1.97 ± 0.078.

Take GKVLQNKQAEICQLEEKLEIANED [CCDC89]: the protein stability index under setting [1] was 5.26 ± 0.37 and the protein stability index under setting [2] stood at 5.44 ± 0.25.

Consider GLAIHCMQVHKETIDAVPNAIPGR [ZNF207], for which the protein stability index was 2.94 ± 0.18 under setting [1] and 3.04 ± 0.16 under setting [2].

In turn, GLHRRPGAGHCSASPGPAAPTARM gave a protein stability index under setting [1] of 3.76 ± 0.31 and a protein stability index under setting [2] of 3.64 ± 0.31.

Sequence GLLWLLLGSAGAQYEKYSFRGFPP [P3H4] returned a protein stability index under setting [1] of 3.08 ± 0.098 and a protein stability index under setting [2] of 3.71 ± 0.62.

For the sequence GLNDALDNLRKVVPCYSKTQKLSK [NEUROD6], the protein stability index by setting is: under setting [1], 3.25 ± 0.15; under setting [2], 3.42 ± 0.18.

As to GLNLGKKISVPRDVMLEELSLLTN [MYOZ1], the protein stability index runs as follows: under setting [1], 2.72 ± 0.41; under setting [2], 3.1 ± 0.29.

As for GLNSSWVELPMNSSNGNDNGNGKN [BNIP3L], the protein stability index by setting is: under setting [1], 5.11 ± 0.42; under setting [2], 5.54 ± 0.2.

With GNAHLGYSLVTHIPAGARDIQIVE [ADAMTSL2], the protein stability index runs as follows: under setting [1], 3.03 ± 0.34; under setting [2], 3.24 ± 0.13.

For the sequence GNFDWEAIFDAGTLGGELGALEAL [FOXJ1], the protein stability index by setting is: under setting [1], 4.15 ± 0.26; under setting [2], 4.17 ± 0.34.

As to GPGIPPLMPGMPPGMPPPVPRPGI [ZNF207], the protein stability index under setting [1] was 4.29 ± 0.23 and the protein stability index under setting [2] was found to be 4.35 ± 0.33.

On to GQSLLKDEALAIAALELLPRELFP [PRAME], for which the protein stability index was found to be 2.75 ± 0.41 under setting [1] and 2.84 ± 0.36 under setting [2].

In the case of GQSVTAVGRIIAPLLSGVAQEVSP [MFSD9], the protein stability index amounted to 3.39 ± 0.19 under setting [1] and 3.44 ± 0.19 under setting [2].

With GREVELKPYIAAHFDVLPTEFTLG [PTPRD], the protein stability index stood at 3.01 ± 0.37 under setting [1] and 3 under setting [2].

On to GRGAQGENERVRGLETGDWGGAPK [ZSWIM9], for which the protein stability index is, setting by setting: under setting [1], 5 ± 0.21; under setting [2], 4.98 ± 0.24.

For the sequence GRGAVVPGAGLRRPTYTPPSIMPQ [ZBTB22], the protein stability index by setting is: under setting [1], 3.51 ± 0.3; under setting [2], 3.74 ± 0.063.

GSGADSEPARHIFSFSWLNSLNE [TRIM55] gave a protein stability index under setting [3] of 3.53 ± 0.41 and a protein stability index under setting [4] of 3.53 ± 0.26.

As for GSIEYSCPASNECEITKRRRKACQ [ESRRA], the protein stability index by setting is: under setting [1], 4.88 ± 0.23; under setting [2], 4.97 ± 0.25.

GSLRTLELGSESQGASESQAPGEE [HDAC6]: the protein stability index is 5.52 ± 0.29 under setting [1] and 5.58 ± 0.22 under setting [2].

GSRTPGRSELVEGCGWRCPEHGDR [TRIM14] displayed a protein stability index under setting [1] of 4.19 ± 0.3 and a protein stability index under setting [2] of 4.48 ± 0.074.

For GSSETNLLQHLLEACGRCEEVPEA [PYCR3], the protein stability index amounted to 3.74 ± 0.19 under setting [1] and 4.19 ± 0.14 under setting [2].

Consider GSSGASDQDTLAPLPHPGAAPWPM [DVL3], for which the protein stability index by setting is: under setting [1], 4.2 ± 0.15; under setting [2], 4.3 ± 0.09.

With GSSSDNRTYRYSNRYCGGPGPPIT [DYRK1B], the protein stability index worked out at 2.57 ± 0.42 under setting [1] and 2.75 ± 0.19 under setting [2].

As for GSVGAAICGLQQDEEVSSLTCDAL [CCND2], the protein stability index is, setting by setting: under setting [1], 4.54 ± 0.35; under setting [2], 4.63 ± 0.25.

For GTASSGSSRLPQPSGAGKTVVGVP [ZC2HC1A], the protein stability index came to 4.74 ± 0.41 under setting [1] and 4.72 ± 0.12 under setting [2].

For the sequence GTATRQNNWPPLPSFCPVQPCFFQ [SCAMP3], the protein stability index under setting [1] was 2.42 ± 0.16 and the protein stability index under setting [2] came to 2.45 ± 0.19.

(Values after the supplement of paper PMC10567573.)
